# Measured values from US20130101549A1 (Biogen, published 2013).
# T1: Her2-Fc D1 (MR066)
# T1 construct: also called ErbB2-Fc Domain 1
# T1 chain: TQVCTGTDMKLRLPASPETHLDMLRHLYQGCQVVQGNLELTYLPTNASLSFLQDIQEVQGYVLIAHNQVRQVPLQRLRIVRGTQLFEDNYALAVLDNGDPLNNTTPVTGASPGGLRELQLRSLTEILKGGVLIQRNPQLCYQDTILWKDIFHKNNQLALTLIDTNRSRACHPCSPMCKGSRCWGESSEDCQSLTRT
# T2: Her2-Fc D1-D2 (MR067)
# T2 construct: also called ErbB2-Fc Domains 1-2
# T2 chain: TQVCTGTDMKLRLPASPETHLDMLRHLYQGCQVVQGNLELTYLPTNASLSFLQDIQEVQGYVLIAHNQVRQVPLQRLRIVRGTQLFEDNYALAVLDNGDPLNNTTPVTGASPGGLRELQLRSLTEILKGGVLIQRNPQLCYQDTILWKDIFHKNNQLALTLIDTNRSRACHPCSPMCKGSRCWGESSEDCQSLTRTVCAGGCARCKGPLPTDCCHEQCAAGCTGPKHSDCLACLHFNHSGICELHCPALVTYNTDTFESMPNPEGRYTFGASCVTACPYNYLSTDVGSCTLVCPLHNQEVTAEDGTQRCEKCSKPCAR
# Key:
# EGFR on MDA-MB-468 cells = target: T3, EGFR on MDA-MB-468 cells (UniProt P00533 25-1210, limits assumed); experiment: FACS on MDA-MB-468 cells (EGFR+, HER2-)
# T3 construct: whole, on cells; also called MDA-MB-468 tumor cell line (EGFR+, HER2-)
# [1] = target: T4, human HER2/ErbB2 on cells (human, UniProt P04626 23-1255); experiment: flow cytometry on CHO cells expressing human HER2
# T4 construct: whole, on cells; also called hHER2/ErbB2; wild type HER2/ErbB
# Procedure: CHO cells (Chinese Hamster Ovary cells) stably transfected with hHER2 expression vector and selected in G418 containing medium. G418 resistant clones were pooled and split 24 hours prior to the setup of the assay to obtain 70% confluent monolayer. Routinely, CHO cell line was maintained within 20 passages. Cells were lifted with cell dissociation buffer (Gibco catalog #13151-014), counted, washed and adjusted to 1×10⁶ cells/ml and one ml of cells were then added to each tube (12×75 mm tube Falcon catalog #352054). Cells were pelleted and supernatant removed by centrifugation at 1200 rpm for 5 min and 100 μl of diluted antibodies were then added to the cell pellet. Purified Fabs were tested at a starting concentration of either 210 or 60 μg/ml with 1:3 dilutions in FACS buffer, down to 0.001 μg/ml. FACS buffer used throughout the assay was PBS (without Ca^{+±}/Mg^{+±}) containing 1% BSA (Sigma catalog #A-7906) and 0.1% Sodium Azide (Sigma catalog #S2002). Samples were allowed to incubate on ice for 1 hour and 15 minutes then were washed with 2 ml FACS buffer and centrifuged at 1200 rpm for 5 minutes at 4° C. The supernatant was aspirated and 100 μl of the secondary detection antibody was added to each corresponding tube in FACS buffer. Samples were then incubated for 30 minutes on ice, in the dark. Cells were washed as described above, then, re-suspended in 250 μl FACS buffer per tube/sample.
# A full titration was performed on MCF7 and SKBR3 tumor cell lines, and human Her2-CHO and murine Her2-CHO cell lines in order to calculate an approximate EC50 (data not shown, see summary in Table 1).
# Her2-Fc D1 (MR066) = target: T1, Her2-Fc D1 (MR066); experiment: ELISA, HER2-Fc construct captured by anti-huFc, Fab from 1 ug/ml in 5-fold steps, HRP anti-kappa/lambda
# Procedure: (§1) Nunc Maxisorp ELISA plates were coated with 5 ug/ml rabbit pAbs anti-human Fc gamma in PBS overnight at 4 degrees. Plates were washed one time with PBST (PBS, 0.05% tween 20) and blocked with 1% BSA in PBS for one hour at room temperature. Plates were washed one time with PBST and incubated with 1 ug/ml HER2-Fc fusion protein for one hour. Plates were washed three times with PBST and dilutions of Fab (four 5-fold serial dilutions, starting at 1 ug/ml) in block were added and incubated for ninety minutes. Plates were washed three times with PBST and incubated with 1:2,000 HRP-labelled goat anti-human kappa (Southern Biotech cat#2060-05) and HRP-labelled goat anti-human lambda (Southern Biotech cat#2070-05) in block for one hour at room temperature. Plates were washed three times with PBST, developed with TMB solution for 5 minutes, and stopped with equal volume 1 N H₂SO₄. Absorbance values were read at 450 nm.
# Her2-Fc D1-D2 (MR067) = target: T2, Her2-Fc D1-D2 (MR067); experiment: as above
# Procedure: as §1
# Her2-Fc D1-D2-D3 (MR068) = target: T5, Her2-Fc D1-D2-D3 (MR068); experiment: as above
# T5 construct: also called ErbB2-Fc Domains 1-3
# Procedure: as §1
# [2] = target: T6, Her2-Fc D1-D2-D3-D4 (MR069); experiment: as above
# T6 construct: made in house, kept apart from the R&D Systems HER2-Fc; also called ErbB2-Fc full length ECD
# Procedure: as §1
# human HER2-Fc [3] = target: T7, human HER2-Fc (human, UniProt P04626 23-652); experiment: ELISA on coated huHER2-Fc, HRP anti-human kappa; the number is C of the printed 4-P fit y=(A-D)/(1+(x/C)^B)+D (A -0.004, B 0.92, D 0.931, R^2 1); x axis: Fab equivalent concentration; last point about 13000 ng/ml at OD about 0.73, upper plateau not reached by the points
# T7 construct: Bought from R&D Systems: homodimeric fusion of the HER2 extracellular domain and human IgG1 Fc; also called human ErbB2-Fc; rhErbB2-Fc; not shown: Fc fragment of human IgG1
# murine HER2-Fc [4] = target: T8, murine HER2-Fc (mouse; human, UniProt P70424 23-653); experiment: ELISA on coated muHER2-Fc, HRP anti-human kappa; the number is C of the printed 4-P fit y=(A-D)/(1+(x/C)^B)+D (A 0.002, B 0.792, D 0.827, R^2 0.999); x axis: Fab equivalent concentration; C lies beyond the last point (about 14000 ng/ml, OD about 0.28): extrapolated by the fit
# T8 construct: extracellular domain; Bought from R&D Systems; also called murine ErbB2-Fc; not shown: Fc fragment of human IgG1
# human HER2-Fc [5] = target: T7, human HER2-Fc; experiment: ELISA on coated HER2-Fc
# Procedure: Human and murine ErbB2-Fc were obtained from R&D Systems. Wells of 96-well plates were coated with 2 ug/ml or 0.2 ug/ml of human or murine HER2-Fc by incubation overnight at 4-8° C. with either of these six proteins (80 ul/well of a 0.2 or 2 ug/ml solution in PBS). Wells were emptied, filled completely with a solution of PBS with 1% BSA (blocking buffer) and incubated at room temperature for 1 hour. Wells were emptied, washed twice PBS containing 0.05% Tween 20 (PBST) and filled with the samples (80 ul/well of 3× dilution series of the standard and supernatants in blocking buffer) prepared in another 96-well plate. After a 2-hour incubation at room temperature, the wells were emptied, washed three times with PBST and filled with a solution of HRP-conjugated goat pAbs anti-human kappa chain (80 ul/well of a 2000-fold dilution in blocking buffer). After 1-hour incubation, the wells were emptied and filled with a solution of HRP substrate prepared freshly. The color was left to develop for 3 minutes and was stopped by addition of an equal volume of 1N H₂SO₄. Absorbance was measured at 450 nm using a Plate Reader (SpectraMax, Molecular Devices). The data was processed and graphs were created using SoftMax Pro software.
# [6] = target: T4, human HER2/ErbB2 on cells; experiment: FACS on HER2-expressing cells
# human HER2-Fc [7] = target: T7, human HER2-Fc; experiment: ELISA on coated huHER2-Fc, HRP anti-human kappa; the number is C of the printed 4-P fit (A 0.008, B 1.216, D 0.834, R^2 1); x axis: Fab equivalent concentration
# murine HER2-Fc [8] = target: T8, murine HER2-Fc; experiment: ELISA on coated muHER2-Fc, HRP anti-human kappa; the number is C of the printed 4-P fit (A -0.002, B 0.6, D 1.035, R^2 1); x axis: Fab equivalent concentration; C lies beyond the last point (about 120 ng/ml, OD about 0.4): extrapolated by the fit
binding result (EGFR on MDA-MB-468 cells),EC50 [1] [nM],binding result (Her2-Fc D1 (MR066)),binding result (Her2-Fc D1-D2 (MR067)),binding result (Her2-Fc D1-D2-D3 (MR068)),binding result [2],EC50 (human HER2-Fc [3]) [µg/mL],EC50 (murine HER2-Fc [4]) [µg/mL],EC50 (human HER2-Fc [5]) [nM],EC50 [6] [nM],EC50 (human HER2-Fc [7]) [ng/mL],EC50 (murine HER2-Fc [8]) [µg/mL],Binder
no binding,60,no binding (tested: 1 ug/ml),binds,binds,binds,3.43,31.8,,,,,"BIIB71F10 Fab (Fab, V domains shown, Soluble human Fab; also called Fab 71F10) VH: EVQLLESGGGLVQPGGSLRLSCAASGFTFSSYGMVWVRQAPGKGLEWVSSISSSGGLTWYADSVKGRFTISRDNSKNTLYLQMNSLRAEDTAVYYCASPPGIAVARDYWGQGTLVTVSS VL: DIQMTQSPSSLSASVGDRVTITCRASQGISNYLAWYQQKPGKVPKLLIYAASTLQSGVPSRFSGSGSGTDFTLTISSLQPEDVATYYCQKYNSALLTFGGGTKVEIK"
,,,,,,,,0.07,2,6.34,0.248,"BIIB71F10 Mab (BIIB71F10-134, 71F10 IgG) (antibody, V domains shown, IgG1; also called BIIB71-F10 antibody) VH: EVQLLESGGGLVQPGGSLRLSCAASGFTFSSYGMVWVRQAPGKGLEWVSSISSSGGLTWYADSVKGRFTISRDNSKNTLYLQMNSLRAEDTAVYYCASPPGIAVARDYWGQGTLVTVSS VL: DIQMTQSPSSLSASVGDRVTITCRASQGISNYLAWYQQKPGKVPKLLIYAASTLQSGVPSRFSGSGSGTDFTLTISSLQPEDVATYYCQKYNSALLTFGGGTKVEIKR"
